Measurements: patent publication US20230212319A1, “NOVEL ANTIGEN BINDING DOMAINS AND SYNTHETIC ANTIGEN RECEPTORS INCORPORATING THE SAME” (University of Southern California, priority 2020, published 2023)

B1: 22066 (protein)
chain: MALPVTALLLPLALLLHAARPQLQLQESGPGLVKPSETLSLTCTVSGDSISSGDYYWGWIRQPPGKGLEWIGHIYYSGVTYYNPSLKSRVTISVDTSRNQFSLKLSSVTAADTAVYYCTREDSSNWRSRGQGTLVTVSSLEVAALEREDLKNVFPPEVAVFEPSEAEISHTQKATLVCLATGFYPDHVELSWWVNGKEVHSGVCTDPQPLKEQPALNDSRYCLSSRLRVSATFWQNPRNHFRCQVQFYGLSENDEWTQDRAKPVTQIVSAEAWGRADCGFTSESYQQGVLSATILYEILLGKATLYAVLVSALVLMAMVKRKDSRGRAKRSGSGATNFSLLKQAGDVEENPGPTSMDWIWRILFLVGAATGAHSFEVQLLESGGGLIQPGGSLRLSCAASGFTFSSHAMTWVRQAPGKGLEWVSAISGSGDYTHYADSVKGRFTISRDNSKNTVYLQMNSLRAEDSAVYYCAKDEDGGSLLGHRGQGTLVTVSSTRIQNPDPAVYQLRDSKSSDKSVCLFTDFDSQTNVSQSKDSDVYITDKCVLDMRSMDFKSNSAVAWSNKSDFACANAFNNSIIPEDTFFPSPESSCDVKLVEKSFETDTNLNFQNLSVIGFRILLLKVAGFNLLMTLRLWSSRAKRSGSGVKQTLNFDLLKLAGDVESNPGPSRGHMTEYKPTVRLATRDDVPRAVRTLAAAFADYPATRHTVDPDRHIERVTELQELFLTRVGLDIGKVWVADDGAAVAVWTTPESVEAGAVFAEIGPRMAELSGSRLAAQQQMEGLLAPHRPKEPAWFLATVGVSPDHQGKGLGSAVVLPGVEAAERAGVPAFLETSAPRNLPFYERLGFTVTADVEVPEGPRTWCMTRKPGA
B2: 22072 (protein)
chain: MALPVTALLLPLALLLHAARPQLQLQESGPGLVKPSETLSLTCTVSGDSISSGDYYWGWIRQPPGKGLEWIGHIYYSGVTYYNPSLKSRVTISVDTSRNQFSLKLSSVTAADTAVYYCTREDSSNWRSRGQGTLVTVSSLEGQPKANPTVTLFPPSSEELQANKATLVCLISDFYPGAVTVAWKADGSPVKAGVETTKPSKQSNNKYAASSYLSLTPEQWKSHRSYSCQVTHEGSTVEKTVAPTECSPIKTDVITMDPKDNCSKDANDTLLLQLTNTSAYYMYLLLLLKSVVYFAIITCCLLRRTAFCCNGEKSRAKRSGSGATNFSLLKQAGDVEENPGPTSMDWIWRILFLVGAATGAHSFEVQLLESGGGLIQPGGSLRLSCAASGFTFSSHAMTWVRQAPGKGLEWVSAISGSGDYTHYADSVKGRFTISRDNSKNTVYLQMNSLRAEDSAVYYCAKDEDGGSLLGHRGQGTLVTVSSTRIQNPDPAVYQLRDSKSSDKSVCLFTDFDSQTNVSQSKDSDVYITDKCVLDMRSMDFKSNSAVAWSNKSDFACANAFNNSIIPEDTFFPSPESSCDVKLVEKSFETDTNLNFQNLSVIGFRILLLKVAGFNLLMTLRLWSSRAKRSGSGVKQTLNFDLLKLAGDVESNPGPSRGHMTEYKPTVRLATRDDVPRAVRTLAAAFADYPATRHTVDPDRHIERVTELQELFLTRVGLDIGKVWVADDGAAVAVWTTPESVEAGAVFAEIGPRMAELSGSRLAAQQQMEGLLAPHRPKEPAWFLATVGVSPDHQGKGLGSAVVLPGVEAAERAGVPAFLETSAPRNLPFYERLGFTVTADVEVPEGPRTWCMTRKPGA
B3: 22067 (protein)
chain: MALPVTALLLPLALLLHAARPQLQLQESGPGLVKPSETLSLTCTVSGDSISSGDYYWGWIRQPPGKGLEWIGHIYYSGVTYYNPSLKSRVTISVDTSRNQFSLKLSSVTAADTAVYYCTREDSSNWRSRGQGTLVTVSSLEAAAKEDLKNVFPPEVAVFEPSEAEISHTQKATLVCLATGFYPDHVELSWWVNGKEVHSGVCTDPQPLKEQPALNDSRYCLSSRLRVSATFWQNPRNHFRCQVQFYGLSENDEWTQDRAKPVTQIVSAEAWGRADCGFTSESYQQGVLSATILYEILLGKATLYAVLVSALVLMAMVKRKDSRGRAKRSGSGATNFSLLKQAGDVEENPGPTSMDWIWRILFLVGAATGAHSFEVQLLESGGGLIQPGGSLRLSCAASGFTFSSHAMTWVRQAPGKGLEWVSAISGSGDYTHYADSVKGRFTISRDNSKNTVYLQMNSLRAEDSAVYYCAKDEDGGSLLGHRGQGTLVTVSSTRIQNPDPAVYQLRDSKSSDKSVCLFTDFDSQTNVSQSKDSDVYITDKCVLDMRSMDFKSNSAVAWSNKSDFACANAFNNSIIPEDTFFPSPESSCDVKLVEKSFETDTNLNFQNLSVIGFRILLLKVAGFNLLMTLRLWSSRAKRSGSGVKQTLNFDLLKLAGDVESNPGPSRGHMTEYKPTVRLATRDDVPRAVRTLAAAFADYPATRHTVDPDRHIERVTELQELFLTRVGLDIGKVWVADDGAAVAVWTTPESVEAGAVFAEIGPRMAELSGSRLAAQQQMEGLLAPHRPKEPAWFLATVGVSPDHQGKGLGSAVVLPGVEAAERAGVPAFLETSAPRNLPFYERLGFTVTADVEVPEGPRTWCMTRKPGA
B4: 22154 (protein)
chain: MALPVTALLLPLALLLHAARPACEVQLLESGGGLIQPGGSLRLSCAASGFTFSSHAMTWVRQAPGKGLEWVSAISGSGDYTHYADSVKGRFTISRDNSKNTVYLQMNSLRAEDSAVYYCAKDEDGGSLLGHRGQGTLVTVSSGTGGGGSGGGGSGGGGSEFSYVLTQPPSVSVAPGQTARITCGGNNIGGKSVHWYQQPPGQAPVVVVYDDSDRPSGIPERFSGSNSGNTATLTISRVEAGDEAVYYCQVWDSSSDHVVFGGGTKLTVLLEGQPKANPTVTLFPPSSEELQANKATLVCLISDFYPGAVTVAWKADGSPVKAGVETTKPSKQSNNKYAASSYLSLTPEQWKSHRSYSCQVTHEGSTVEKTVAPTECSGRADCGFTSESYQQGVLSATILYEILLGKATLYAVLVSALVLMAMVKRKDSRGRAKRSGSGATNFSLLKQAGDVEENPGPTSATMDWIWRILFLVGAATGAHSGPQVQLQESGGGLAQAGGSLRLSCAASGRTFSMGWFRQAPGKEREFVAAITYSGGSPYYASSVRGRFTISRDNAKNTVYLQMNSLKPEDTAVYYCAANPTYGSDWNAENWGQGTQVTVSSGSGGGGSGGGGSGGGGSFEQLQLQESGPGLVKPSETLSLTCTVSGGSISSSSYFWGWIRQPPGKGLEWIGSIYYSGITYYNPSLKSRVTISVDTSKNQFSLKLSSVTAADTAVYYCARHDGAVAGLFDYWGQGTLVTVSSATRASTKGPSVFPLAPSSKSTSGGTAALGCLVKDYFPEPVTVSWNSGALTSGVHTFPAVLQSSGLYSLSSVVTVPSSSLGTQTYICNVNHKPSNTKVDKRVEPKSCIPEDTFFPSPESSCDVKLVEKSFETDTNLNFQNLSVIGFRILLLKVAGFNLLMTLRLWSSRAKRSGSGVKQTLNFDLLKLAGDVESNPGPSRGHMTEYKPTVRLATRDDVPRAVRTLAAAFADYPATRHTVDPDRHIERVTELQELFLTRVGLDIGKVWVADDGAAVAVWTTPESVEAGAVFAEIGPRMAELSGSRLAAQQQMEGLLAPHRPKEPAWFLATVGVSPDHQGKGLGSAVVLPGVEAAERAGVPAFLETSAPRNLPFYERLGFTVTADVEVPEGPRTWCMTRKPGA
B5: 22060 (protein)
chain: MALPVTALLLPLALLLHAARPQLQLQESGPGLVKPSETLSLTCTVSGDSISSGDYYWGWIRQPPGKGLEWIGHIYYSGVTYYNPSLKSRVTISVDTSRNQFSLKLSSVTAADTAVYYCTREDSSNWRSRGQGTLVTVSSLEGSGGGGSGGGGSGEDLKNVFPPEVAVFEPSEAEISHTQKATLVCLATGFYPDHVELSWWVNGKEVHSGVCTDPQPLKEQPALNDSRYCLSSRLRVSATFWQNPRNHFRCQVQFYGLSENDEWTQDRAKPVTQIVSAEAWGRADCGFTSESYQQGVLSATILYEILLGKATLYAVLVSALVLMAMVKRKDSRGRAKRSGSGATNFSLLKQAGDVEENPGPTSMDWIWRILFLVGAATGAHSFEVQLLESGGGLIQPGGSLRLSCAASGFTFSSHAMTWVRQAPGKGLEWVSAISGSGDYTHYADSVKGRFTISRDNSKNTVYLQMNSLRAEDSAVYYCAKDEDGGSLLGHRGQGTLVTVSSTRIQNPDPAVYQLRDSKSSDKSVCLFTDFDSQTNVSQSKDSDVYITDKCVLDMRSMDFKSNSAVAWSNKSDFACANAFNNSIIPEDTFFPSPESSCDVKLVEKSFETDTNLNFQNLSVIGFRILLLKVAGFNLLMTLRLWSSRAKRSGSGVKQTLNFDLLKLAGDVESNPGPSRGHMTEYKPTVRLATRDDVPRAVRTLAAAFADYPATRHTVDPDRHIERVTELQELFLTRVGLDIGKVWVADDGAAVAVWTTPESVEAGAVFAEIGPRMAELSGSRLAAQQQMEGLLAPHRPKEPAWFLATVGVSPDHQGKGLGSAVVLPGVEAAERAGVPAFLETSAPRNLPFYERLGFTVTADVEVPEGPRTWCMTRKPGA

What follows are molecules tested on RAJI cells (assay: JNG assay, co-culture with RAJI cells). Conditions: JNG cells expressing construct, co-culture with Raji.
Assay type: cell-based
In short: (§1)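 Jurkat NFAT-GFP (JNG) cells stably transduced with SARs by lentivirus, with drug selection where the construct carried a resistance gene, then co-cultured with target cells at E:T ~1:2 for ~4–18 h. % GFP-positive cells measured by FACS against parental JNG; +/- to 5+ correspond to ~5–50% GFP-positive.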

Row | Molecule | NFAT-GFP ASSAY: Raji
1 | B1 | +/- (refer to approximately 5%, 10%, 20%, 30%, 40% and 50% GFP positive cells)
2 | B2 | + (refer to approximately 5%, 10%, 20%, 30%, 40% and 50% GFP positive cells)
3 | B3 | +/- (refer to approximately 5%, 10%, 20%, 30%, 40% and 50% GFP positive cells)
4 | B4 | 4+ (refer to approximately 5%, 10%, 20%, 30%, 40% and 50% GFP positive cells)
5 | B5 | 2+ (refer to approximately 5%, 10%, 20%, 30%, 40% and 50% GFP positive cells)

These molecules were tested on L363 cells (assay: JNG assay, co-culture with L363 cells). Conditions: co-culture with L363.
Assay type: cell-based
In short: as §1

Row | Molecule | NFAT-GFP ASSAY: L363
6 | B1 | +/- (refer to approximately 5%, 10%, 20%, 30%, 40% and 50% GFP positive cells)
7 | B2 | + (refer to approximately 5%, 10%, 20%, 30%, 40% and 50% GFP positive cells)
8 | B3 | + (refer to approximately 5%, 10%, 20%, 30%, 40% and 50% GFP positive cells)
9 | B4 | 2+ (refer to approximately 5%, 10%, 20%, 30%, 40% and 50% GFP positive cells)
10 | B5 | 2+ (refer to approximately 5%, 10%, 20%, 30%, 40% and 50% GFP positive cells)

The molecules below were run on Nalm6 cells (assay: JNG assay, co-culture with Nalm6 cells). Conditions: co-culture with Nalm6.
Assay type: cell-based
In short: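 Jurkat NFAT-GFP reporter cells stably expressing lentivirally delivered SARs (puromycin or blasticidin selection) were cocultured with target cells at E:T ~1:2 for ~4–18 h. GFP was read by FACS, and % GFP+ cells were scored against parental reporter cells (+/-, +, 2+…5+ ≈ 5%, 10%, 20%…50%).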

Row | Molecule | NFAT-GFP ASSAY: Nalm6
11 | B1 | +/- (refer to approximately 5%, 10%, 20%, 30%, 40% and 50% GFP positive cells)
12 | B2 | +/- (refer to approximately 5%, 10%, 20%, 30%, 40% and 50% GFP positive cells)
13 | B3 | +/- (refer to approximately 5%, 10%, 20%, 30%, 40% and 50% GFP positive cells)
14 | B4 | + (refer to approximately 5%, 10%, 20%, 30%, 40% and 50% GFP positive cells)
15 | B5 | +/- (refer to approximately 5%, 10%, 20%, 30%, 40% and 50% GFP positive cells)
